This passage reports activity results from patent US20220195418.

The data set deals with T7 RNAP PACE variant L2-108.2 (mutations only in figure) (bacteriophage T7) (UniProt P00573). Briefly: cell_activity. The note with it: lacZ reporter; relative to starting RNAP on T7 promoter.

On to “TAATACGACTCACTATA (double strand) [T7 promoter]”, for which the activity came to 100%.

For “AATTAACCCTCACTAAA (double strand) [T3 promoter]”, the activity came to 270%.
